Test results taken from patent CN107011436A.
“And” between values parts separate entries of the source, which are not always exact repeats. Equal entries are not always repeated. Where two headings read alike, the source gives them in different places.

Assays:
[1] = target: 纯化的H7N9病毒HA蛋白 (H7N9病毒); assay: ELISA, HA-coated plate, expression supernatant diluted 1:160, anti-human Fc-HRP
[2] = target: 纯化的H7N9病毒HA蛋白 (H7N9病毒); assay: ELISA, HA-coated plate, expression supernatant diluted 1:80, anti-human Fc-HRP
[3] = target: 纯化的H7N9病毒HA蛋白 (H7N9病毒); assay: ELISA, HA-coated plate, expression supernatant diluted 1:40, anti-human Fc-HRP
[4] = target: 纯化的H7N9病毒HA蛋白 (H7N9病毒)
[5] = target: 纯化的H7N9病毒HA蛋白 (H7N9病毒); assay: ELISA, HA-coated plate, expression supernatant diluted 1:640, anti-human Fc-HRP
[6] = target: 纯化的H7N9病毒HA蛋白 (H7N9病毒); assay: ELISA, HA-coated plate, expression supernatant diluted 1:320, anti-human Fc-HRP
[7] = target: 纯化的H7N9病毒HA蛋白 (H7N9病毒); assay: ELISA, HA-coated plate, expression supernatant diluted 1:20, anti-human Fc-HRP
[8] = target: H7N9病毒Wuxi-02病毒株的HA蛋白 (H7N9病毒); assay: cell-based or functional assay
[9] = target: H7N9病毒Nanjing-06病毒株的HA蛋白 (H7N9病毒); assay: cell-based or functional assay
[10] = target: H7N9病毒Suzhou-03病毒株的HA蛋白 (H7N9病毒); assay: cell-based or functional assay
[11] = target: H7N9病毒Wuxi-01病毒株的HA蛋白 (H7N9病毒); assay: cell-based or functional assay

B1: 抗H7N9病毒的单克隆抗体mAb6137 (antibody, V domains shown)
VH: EVQLVESGGGLVQPGRSLRLSCAASGFIFDDYAMHWVRQAPGKGLEWVSGISWNNNNRAYADSVKGRFTISRDSAKNSLYLQMNSLRAEDTALYYCAKDILSLNMVRGGDEYYGIDVWGQGTTVTVSS
VL: DIQLTQSPSSLSASVGDRVTITCQASQDINNYLNWYQQKPGKAPKLLIFDASNLETGVPSRFSGSGSGTDFTFTISSLQPEDIATYYCQQYGSLLTFGGGTKVDIKR
[1]
  OD450: 0.971 OD450
[2]
  OD450: 1.37 OD450
[3]
  OD450: 1.91 OD450
[4]
  OD450: 0.211 OD450 and 0.153 OD450
[5]
  OD450: 0.35 OD450
[6]
  OD450: 0.584 OD450
[7]
  OD450: 2.06 OD450
[8]
  中和100×TCID50病毒需要的抗体质量: 80 ng
[9]
  中和100×TCID50病毒需要的抗体质量: 20 ng
[10]
  中和100×TCID50病毒需要的抗体质量: 40 ng
[11]
  中和100×TCID50病毒需要的抗体质量: 40 ng
